± gives the uncertainty stated by the source.
experiment: amyloid nucleation score (Sup35N fusion, yeast selection) (log enrichment); library NNK2; higher = more nucleation; inactive = no reads after selection
Procedure, shortened: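 The nucleation score is the DiMSum log enrichment of output over input reads, centred on the mode score of non-aggregating sequences. Only sequences with 100 or more input reads were scored, using Illumina sequencing of input and output plasmid inserts. Psi-negative yeast expressing Sup35N fused to peptides of 20 random codons were induced 24 hours with 100 μM copper sulfate and grown 7 days at 30°C on medium lacking adenine and uracil.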

Row | Substance | amyloid nucleation score
1 | GRWSRF | 0.446 ± 0.64
2 | CFVGTQLSFKVG | 0.173 ± 0.49
3 | YINSGV | inactive
4 | QDTFYEWCKNVHVLHTRFGV | 0.905 ± 0.47
5 | PYVMCLNDYPSSKDCFQIVS | -0.619 ± 0.27
6 | QVVFQGLFFYVGCSGHICRY | 7.67 ± 0.062
7 | LFLTHPARWSSNLRRLL | 0.069 ± 0.3
8 | LCERYWKALK | inactive
9 | SSMERCEHLQVLEAFLWSVE | 1.87 ± 0.16
10 | HSMSYFDYAIRLDRVGDVIS | 0.339 ± 0.38
11 | CLVWLDI | -1.11 ± 0.55
12 | VRTNDKYQEVFPSVYYNLGN | -0.944 ± 1.1
13 | STMVVRVFIGNVFMSFNMIR | 4.36 ± 0.059
14 | GKCRRPMCGGKFGDQGLLRL | 3.27 ± 0.11
15 | RVISGSMVETIDEDIVEGVN | -0.332 ± 0.3
16 | IVTAVITM | inactive
17 | SEWSRDRKRVKVSHFA | 0.465 ± 0.17
18 | GLSNLTYDFFPEKPP | -1.45 ± 0.62
19 | SLQRIKGNFQPMVFAINMFN | 4.6 ± 0.11
20 | HACSMSIFEFRMCKKWSLLV | -0.848 ± 0.38
21 | MSMATTWSIFDWVEREFPFY | -0.933 ± 0.55
22 | LNTSSYFVIDDFWIIFRRCR | -0.814 ± 0.55

Row | Substance | amyloid nucleation score
23 | TITPKSSICNPLRDNSYSVV | 0.136 ± 0.65
24 | MFWSTSYRNNFWTPIWEKLG | -0.597 ± 0.39
25 | TVWNHVTGLDKNSRCVTQSS | 0.509 ± 0.81
26 | ILRFEAIYFEIMPHVYKVVK | -0.409 ± 0.38
27 | GYINEYCCHLRVNGLLRAPG | -0.315 ± 0.5
28 | LLWCIERG | 0.946 ± 0.51
29 | KTLTVFAISYC | 0.482 ± 0.55
30 | LLNLTSLLRKCLFKNRRKFI | -0.972 ± 0.36
31 | SSRHNPIWLRTAMDGDLGFA | 0.864 ± 0.5
32 | IINSANM | 0.736 ± 0.74
33 | FVPAVEFVHHFAVWVWRE | 0.072 ± 1.1
34 | LRFKNVWWPYGDYECATIIT | -0.468 ± 0.41
35 | YSYVVNLLTYTRSECKMLV | 5.738 ± 0.035
36 | RYVLSMFQLLLTYVQL | 0.561 ± 0.23
37 | QGMNPLQSLDVKCYYL | inactive
38 | RDTVFYILSAWNLSAGSRKA | 3.04 ± 0.089
39 | LCHLVFVVSDWRQRLRVFTV | 4.37 ± 0.05
40 | NATEGFESFWM | inactive
41 | PKLPLAESR | -0.11 ± 0.53
42 | VWRWSKRNATYIGAGIWSGR | 1.42 ± 0.21
43 | CSINLRAYPVLSRGATVACK | 0.755 ± 0.55
44 | SARHDSRVYNWGLFMKYDVN | 4.12 ± 0.084

Row | Substance | amyloid nucleation score
45 | TFNYHVTYFLGHFFSTYGRF | 3.49 ± 0.064
46 | CNERFERLFISVTGFVMRRH | -0.358 ± 0.39
47 | DVKSYTITYSLSFHVMSVII | 2.72 ± 0.21
48 | FYNIRPETVAKAMKGLGWST | -0.136 ± 0.37
49 | ITRSGWDFYLS | 0.687 ± 0.49
50 | NFQMTVRYWVKDGVESQEIN | 4.192 ± 0.033
51 | PSSSVCNINCYSKRSDRSVV | -0.09 ± 0.63
52 | CTIRLECLLA | -0.428 ± 0.46
53 | FILQELCWPVLSSIHFGNVA | -1.15 ± 0.36
54 | SQVSHLRLDVPVAEI | 4.04 ± 0.078
55 | LHRKWFGYGCTCSWIGWEEW | -0.002 ± 0.48
56 | YQNIVIRLLVLCYNVTDGLV | 3.02 ± 0.14
57 | ILANCGCCSNFSFYQMGEKY | 8.279 ± 0.047
58 | YQRMPSIYGEVVCHQSCQGV | -0.069 ± 0.45
59 | LFFYTYWC | inactive
60 | CSHPFDYVQTILRTVTLFLI | -0.114 ± 0.63
61 | HPMLLMKNARG | -0.086 ± 0.27
62 | LVQYMTMRCVFSNIGGMTSG | 0.263 ± 0.64
63 | STSICYFLYRLWSHISLNSL | inactive
64 | VNWGNGVFAGFLWYYVRPCH | -1.03 ± 1.1
65 | LMMTSVYLKLGWSFFIFRHR | -0.238 ± 1.1
66 | LSIFKGNTNLLLSYVPALNI | -1.29 ± 0.64

Row | Substance | amyloid nucleation score
67 | RVDFFRFSVQSESWSVLH | 0.334 ± 0.35
68 | MVHMGGDDMCCGIVVWTQAP | 11.85 ± 0.066
69 | FRVGLLVGISMVDFTLGVNA | 0.416 ± 0.8
70 | YLYGGVYKIKIMILPFDRAL | 7.621 ± 0.044
71 | WGNILW | inactive
72 | SIHDVVYLGPVVVAKDSSVF | inactive
73 | LNVGIFNLLTSSGFMGTIRR | 4.39 ± 0.045
74 | KLHQNSKGCPGVLPVDGLKM | 0.82 ± 0.56
75 | LSLRDVGGLLSNLSIMCGKG | 0.144 ± 0.25
76 | DGLARAYAARM | 1.53 ± 0.29
77 | WNLFMQYAFYRMDLASK | -0.689 ± 1.1
78 | AVIVAIFCSSGYYRHFYTFT | -0.214 ± 1
79 | FDVKGRISLNRYSINFNARL | 5.11 ± 0.073
80 | LATLVNCCTIVNRSNFGIMH | 6.985 ± 0.061
81 | GMPVLV | 0.093 ± 0.26
82 | PAIHVVDTRVGWRHSMSGYS | 1.72 ± 0.15
83 | FIAYRFWFWKGVSASKEHGQ | 0.433 ± 0.62
84 | QVTSCGSWWSRSIWYEVVFS | -0.622 ± 1.1
85 | RLYPLIVQFFMVCKT | 1.48 ± 0.23

Source: the supplement of paper PMC12042874
